Experimental data: article PMC11790868
“And” between values parts separate entries of the source, which are not always exact repeats. Equal values may be shown once.

Assays:
H3K18DTU nucleosome = H3K18DTU nucleosome (UniProt P0C0S8); assay: native gel or EMSA; nucleosomes 100 nM, NAD+ 0 or 150 uM, SIRT7 0-1.6 uM; 10 mM Tris-HCl, 50 mM KCl, 1 mM DTT, pH 7.5; 25 °C, 30 min; 5% TBE native gel run on ice, GelRed
H3K36MTU nucleosome = H3K36MTU nucleosome (UniProt P0C0S8); assay: as above

In the case of “SIRT7 (wild type, full length) (from UniProt Q9NRC8 1-400) (enzyme)”, the stoichiometry N (SIRT7 per nucleosome) (H3K18DTU nucleosome) is reported as 1 and 2 and the stoichiometry N (SIRT7 per nucleosome) (H3K36MTU nucleosome) is reported as 1 and 2.
